From PMC5439444 (Vascular pharmacology, 2016)

Target: GST fusion protein of human full-length (FL) Pin1 (residues 1-163) (human, UniProt Q13526 1-163)
Assay: pull-down

GST fusion protein of human full-length (FL) Pin1 (residues 1-163), sequence (Q13526 whole entry, the tested form may be a part): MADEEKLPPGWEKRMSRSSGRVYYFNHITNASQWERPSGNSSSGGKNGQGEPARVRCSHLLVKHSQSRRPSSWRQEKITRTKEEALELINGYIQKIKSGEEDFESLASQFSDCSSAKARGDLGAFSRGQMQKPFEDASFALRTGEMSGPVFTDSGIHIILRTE

amount bound relative to WT eNOS: > 2 fold
B1: bovine phospho-mimetic S116D endothelial nitric oxide synthase (eNOS) (enzyme, UniProt P29473 1-1205, looked up)
chain: MGNLKSVGQEPGPPCGLGLGLGLGLCGKQGPASPAPEPSRAPAPATPHAPDHSPAPNSPTLTRPPEGPKFPRVKNWELGSITYDTLCAQSQQDGPCTPRCCLGSLVLPRKLQTRPDPGPPPAEQLLSQARDFINQYYSSIKRSGSQAHEERLQEVEAEVASTGTYHLRESELVFGAKQAWRNAPRCVGRIQWGKLQVFDARDCSSAQEMFTYICNHIKYATNRGNLRSAITVFPQRAPGRGDFRIWNSQLVRYAGYRQQDGSVRGDPANVEITELCIQHGWTPGNGRFDVLPLLLQAPDEAPELFVLPPELVLEVPLEHPTLEWFAALGLRWYALPAVSNMLLEIGGLEFSAAPFSGWYMSTEIGTRNLCDPHRYNILEDVAVCMDLDTRTTSSLWKDKAAVEINLAVLHSFQLAKVTIVDHHAATVSFMKHLDNEQKARGGCPADWAWIVPPISGSLTPVFHQEMVNYILSPAFRYQPDPWKGSATKGAGITRKKTFKEVANAVKISASLMGTLMAKRVKATILYASETGRAQSYAQQLGRLFRKAFDPRVLCMDEYDVVSLEHEALVLVVTSTFGNGDPPENGESFAAALMEMSGPYNSSPRPEQHKSYKIRFNSVSCSDPLVSSWRRKRKESSNTDSAGALGTLRFCVFGLGSRAYPHFCAFARAVDTRLEELGGERLLQLGQGDELCGQEEAFRGWAKAAFQASCETFCVGEEAKAAAQDIFSPKRSWKRQRYRLSTQAEGLQLLPGLIHVHRRKMFQATVLSVENLQSSKSTRATILVRLDTAGQEGLQYQPGDHIGICPPNRPGLVEALLSRVEDPPPPTESVAVEQLEKGSPGGPPPSWVRDPRLPPCTLRQALTFFLDITSPPSPRLLRLLSTLAEEPSEQQELETLSQDPRRYEEWKWFRCPTLLEVLEQFPSVALPAPLLLTQLPLLQPRYYSVSSAPNAHPGEVHLTVAVLAYRTQDGLGPLHYGVCSTWLSQLKTGDPVPCFIRGAPSFRLPPDPYVPCILVGPGTGIAPFRGFWQERLHDIESKGLQPAPMTLVFGCRCSQLDHLYRDEVQDAQERGVFGRVLTAFSREPDSPKTYVQDILRTELAAEVHRVLCLERGHMFVCGDVTMATSVLQTVQRILATEGDMELDEAGDVIGVLRDQQRYHEDIFGLTLRTQEVTSRIRTQSFSLQERHLRGAVPWAFDPPGPDTPGP
